Reference: patent EP4242225A1 (Consejo Superior De Investigaciones Científicas, dated 2023)

What was measured:
Assay in all cases: ELISA, biotin-labeled bispecific hcAb on plate-bound RBD-Fc
[1] = target: T1, RBD-Fc, delta variant (B.1.617.2) (SARS-CoV-2; human, UniProt P0DTC2 332-534)
T1 construct: range 332-534; also called delta RBD

[2] = target: T2, RBD-Fc, kappa variant (B.1.617.1) (SARS-CoV-2; human, UniProt P0DTC2 332-534)
T2 construct: range 332-534; also called kappa RBD

[3] = target: T3, RBD-Fc, beta variant (B.1.351) (SARS-CoV-2; human, UniProt P0DTC2 332-534)
T3 construct: range 332-534; also called beta RBD

[4] = target: T4, RBD-Fc, gamma variant (B.1.1.28.1 or P.1) (SARS-CoV-2; human, UniProt P0DTC2 332-534)
T4 construct: range 332-534; also called gamma RBD

Measured: binding result

B1: bispecific hcAb 1.29-1.10 (bispecific antibody)
heavy: QVQLVESGGGSVQAGGSLRLSCAASGYTINTDAVAWFRQAPGKGDERVAVIYTGSGNTNYADSVKGRFTISQDNAKNTVYLQMNSLKPEDTALYYCASGYYGASGYDFNNWGQGTQVTVSSGGGGSGGGGSGGGGSQVQLVESGGGSVQAGGSLRLSCAASGYTYSTCRKGWYRQAPGKERELVASITADGATYYLDSVKGRLTISQDNAKNTVYLQMNSLKPEDTAVYYCAASVKDFTCTFNSWGQGTQVTVSS
binds: [1] | [2] | [3] | [4]

B2: bispecific hcAb 1.29-1.26 (bispecific antibody)
heavy: QVQLVESGGGSVQAGGSLRLSCAASGYTINTDAVAWFRQAPGKGDERVAVIYTGSGNTNYADSVKGRFTISQDNAKNTVYLQMNSLKPEDTALYYCASGYYGASGYDFNNWGQGTQVTVSSGGGGSGGGGSGGGGSQVQLVESGGGLVQAGGSLRLSCAATGYTWSSVCMGWFRQAPGKEREGVAGIPSGRNRPYYADSVKGRFTISQDNAKNAVFLLMNSLKPEDTAIYYCAPCSAPHDPEYNYWGQGTQVTVSS
binds: [1] | [2] | [3] | [4]
